Results on 68 sequences are retold here after the supplement of paper PMC10724198.

± gives the standard deviation of the averaged measurements.

In the data set the test system is Saccharomyces cerevisiae. Nature of the data set: protein stability index of tFT-peptide fusion (C-terminal peptide) (PSI (0-1 scale)); higher = more stable (slower turnover). The following applies: temperature: 30 C. The protocol: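 MPS profiling in S. cerevisiae of the yeast C-terminome library: the last 12 aa of each annotated ORF are fused to the C-terminus of a sfGFP-mCherry timer, after a GGGS linker. Cells are FACS-sorted into 8 mCherry/sfGFP bins and deep-sequenced. PSI runs from 0 (unstable) to 1 (stable); wild type and das1Δ backgrounds, two technical replicates each.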

Where [1] appears, read: genetic background: das1 deletion.

Consider LHMNTNRLAGIR [SEC9 C-terminal 12 aa], for which the protein stability index by setting is: under setting [1], 0.7133 ± 0.0013; (genetic background: wild type) 0.718 ± 0.018.

Turning to LHTLYLRPASAI [SSN8 C-terminal 12 aa], the protein stability index was found to be 0.701 ± 0.021 under setting [1] and 0.669 ± 0.03 (genetic background: wild type).

Take LIDVVPRRPLPQ [HAP5 C-terminal 12 aa]: the protein stability index reads like this: under setting [1], 0.734 ± 0.033; (genetic background: wild type) 0.723 ± 0.03.

For LIWELGDGQSGQ [INO4 C-terminal 12 aa], the protein stability index reads like this: under setting [1], 0.7444 ± 0.0017; (genetic background: wild type) 0.7182 ± 0.0015.

LKALANETMSRI [VPS16 C-terminal 12 aa] yielded a protein stability index under setting [1] of 0.712 ± 0.011 and a protein stability index (genetic background: wild type) of 0.706 ± 0.049.

LKRISDIQADSS [PET494 C-terminal 12 aa]: the protein stability index runs as follows: under setting [1], 0.692 ± 0.031; (genetic background: wild type) 0.6987 ± 0.0012.

Turning to LKSLKKNLTRDR [MTF2 C-terminal 12 aa], the protein stability index was determined as 0.722 ± 0.033 under setting [1] and 0.6605 ± 0.0051 (genetic background: wild type).

On to LKSQSLTTGWSL [MNS1 C-terminal 12 aa], for which the protein stability index is 0.7194 ± 0.0048 under setting [1] and 0.741 ± 0.058 (genetic background: wild type).

With LLCSDLVNGLMQ [SEC21 C-terminal 12 aa], the protein stability index is, setting by setting: under setting [1], 0.706 ± 0.029; (genetic background: wild type) 0.707 ± 0.0075.

For LLDGGDGDEDAV [GON7 C-terminal 12 aa], the protein stability index reads like this: under setting [1], 0.6942 ± 0.002; (genetic background: wild type) 0.7 ± 0.036.

Sequence “LLEAFLRKEQKV [YGR174W-A C-terminal 12 aa]” returned a protein stability index under setting [1] of 0.596 ± 0.012 and a protein stability index (genetic background: wild type) of 0.619 ± 0.019.

LLEDQVPVETKA [PYC1 C-terminal 12 aa] showed a protein stability index under setting [1] of 0.551 ± 0.018 and a protein stability index (genetic background: wild type) of 0.582 ± 0.0095.

In the case of LLEKLDIKDKKE [YVC1 C-terminal 12 aa], the protein stability index is 0.661 ± 0.018 under setting [1] and 0.703 ± 0.024 (genetic background: wild type).

As to LLISMIAAGILL [GAS2 C-terminal 12 aa], the protein stability index came to 0.5322 ± 0.0015 under setting [1] and 0.551 ± 0.017 (genetic background: wild type).

On to LLKQLKQGKISV [NOT3 C-terminal 12 aa], for which the protein stability index stood at 0.669 ± 0.022 under setting [1] and 0.6481 ± 0.0033 (genetic background: wild type).

Regarding LLLGTVSATNAI [YPL062W C-terminal 12 aa], the protein stability index was determined as 0.6878 ± 0.004 under setting [1] and 0.706 ± 0.038 (genetic background: wild type).

For LLPGNTNLPWTS [ERG12 C-terminal 12 aa], the protein stability index was determined as 0.7093 ± 0.0045 under setting [1] and 0.742 ± 0.08 (genetic background: wild type).

On to LLQVYDRVKASM [TOP3 C-terminal 12 aa], for which the protein stability index reads like this: under setting [1], 0.67 ± 0.00086; (genetic background: wild type) 0.5992 ± 0.0013.

With “LLRPPKPPLFCC [YGL123C-A C-terminal 12 aa]”, the protein stability index under setting [1] was 0.6368 ± 0.0044 and the protein stability index (genetic background: wild type) worked out at 0.418 ± 0.032.

On to LLRPRSPVQKAQ [KAR4 C-terminal 12 aa], for which the protein stability index runs as follows: under setting [1], 0.69 ± 0.025; (genetic background: wild type) 0.658 ± 0.064.

Regarding LLVEKKDIPSNS [PRM4 C-terminal 12 aa], the protein stability index is, setting by setting: under setting [1], 0.6965 ± 0.001; (genetic background: wild type) 0.675 ± 0.013.

The sequence LLYCNIYVYYRF [KAR1 C-terminal 12 aa] yielded a protein stability index under setting [1] of 0.15 ± 0.014 and a protein stability index (genetic background: wild type) of 0.161 ± 0.0022.

On to LMRRFVLEFEKQ [SEC6 C-terminal 12 aa], for which the protein stability index reads like this: under setting [1], 0.716 ± 0.0098; (genetic background: wild type) 0.726 ± 0.021.

As to LNEKESTKLFYR [ELP6 C-terminal 12 aa], the protein stability index was 0.6871 ± 0.002 under setting [1] and 0.701 ± 0.013 (genetic background: wild type).

On to LNELGEFKVINS [NPR2 C-terminal 12 aa], for which the protein stability index by setting is: under setting [1], 0.689 ± 0.014; (genetic background: wild type) 0.6914 ± 0.0059.

Take LNKKREKKDETE [CSM1 C-terminal 12 aa]: the protein stability index came out at 0.707 ± 0.038 under setting [1] and 0.718 ± 0.055 (genetic background: wild type).

LNNIKTIIEGPE [XYL2 C-terminal 12 aa]: the protein stability index under setting [1] was determined as 0.676 ± 0.058 and the protein stability index (genetic background: wild type) turned out to be 0.716 ± 0.054.

As to LPAEILSNEPLK [YML119W C-terminal 12 aa], the protein stability index is, setting by setting: under setting [1], 0.688 ± 0.01; (genetic background: wild type) 0.692 ± 0.071.

Regarding LPEPNFFRKAAF [AXL1 C-terminal 12 aa], the protein stability index runs as follows: under setting [1], 0.7202 ± 0.0035; (genetic background: wild type) 0.7 ± 0.015.

As for LPFGCVDDVNRQ [MSK1 C-terminal 12 aa], the protein stability index under setting [1] was 0.706 ± 0.05 and the protein stability index (genetic background: wild type) worked out at 0.719 ± 0.021.

For the sequence LPKIIKKHQRLS [MRH4 C-terminal 12 aa], the protein stability index was found to be 0.724 ± 0.056 under setting [1] and 0.191 ± 0.0044 (genetic background: wild type).

Take LPPGRVFSRVRR [MRPL35 C-terminal 12 aa]: the protein stability index reads like this: under setting [1], 0.683 ± 0.022; (genetic background: wild type) 0.666 ± 0.012.

On to LPRDSAMSAPDI [YMR085W C-terminal 12 aa], for which the protein stability index runs as follows: under setting [1], 0.7049 ± 0.001; (genetic background: wild type) 0.7081 ± 0.0025.

For the sequence LQMVKNAKDLST [CYR1 C-terminal 12 aa], the protein stability index runs as follows: under setting [1], 0.6866 ± 0.0026; (genetic background: wild type) 0.694 ± 0.016.

Regarding LQSDKDLQSLLT [CUE1 C-terminal 12 aa], the protein stability index came out at 0.698 ± 0.0011 under setting [1] and 0.683 ± 0.011 (genetic background: wild type).

Turning to LRSKVKNHAQRH [YLR428C C-terminal 12 aa], the protein stability index worked out at 0.714 ± 0.018 under setting [1] and 0.693 ± 0.021 (genetic background: wild type).

For the sequence LRTVASRLKERY [PNO1 C-terminal 12 aa], the protein stability index reads like this: under setting [1], 0.698 ± 0.013; (genetic background: wild type) 0.706 ± 0.056.

On to LSEEALSTCCCS [YJL118W C-terminal 12 aa], for which the protein stability index runs as follows: under setting [1], 0.7528 ± 0.0039; (genetic background: wild type) 0.738 ± 0.047.

Consider LSFADYRKKLLK [SET3 C-terminal 12 aa], for which the protein stability index runs as follows: under setting [1], 0.70897 ± 0.00015; (genetic background: wild type) 0.689 ± 0.016.

As for “LTVTRWKLQITG [YPR160W-A C-terminal 12 aa]”, the protein stability index was 0.659 ± 0.013 under setting [1] and 0.4486 ± 0.0032 (genetic background: wild type).

Consider LVSMTILVSGLI [SHE9 C-terminal 12 aa], for which the protein stability index by setting is: under setting [1], 0.246 ± 0.025; (genetic background: wild type) 0.262 ± 0.02.

In the case of LWDNKPVEKKRQ [SHH4 C-terminal 12 aa], the protein stability index is, setting by setting: under setting [1], 0.712 ± 0.023; (genetic background: wild type) 0.72 ± 0.027.

For the sequence LYEEHQQMLDKQ [IPI3 C-terminal 12 aa], the protein stability index reads like this: under setting [1], 0.7227 ± 0.0019; (genetic background: wild type) 0.726 ± 0.088.

Turning to “LYSLPISVPCTS [YDL086C-A C-terminal 12 aa]”, the protein stability index worked out at 0.292 ± 0.013 under setting [1] and 0.313 ± 0.018 (genetic background: wild type).

For MALLAMVMGVDM [URA2 C-terminal 12 aa], the protein stability index is, setting by setting: under setting [1], 0.6024 ± 0.0046; (genetic background: wild type) 0.676 ± 0.13.

For the sequence MDTLEEMFTEEP [PRP42 C-terminal 12 aa], the protein stability index was 0.726 ± 0.027 under setting [1] and 0.7107 ± 0.0067 (genetic background: wild type).

As to MIVRFFKKVTFR [CHS1 C-terminal 12 aa], the protein stability index runs as follows: under setting [1], 0.7384 ± 0.0049; (genetic background: wild type) 0.705 ± 0.008.

As for MIWKWLIEDKKN [MRS2 C-terminal 12 aa], the protein stability index runs as follows: under setting [1], 0.72 ± 0.011; (genetic background: wild type) 0.69 ± 0.052.

Take MKDFSKNEQKEK [SEY1 C-terminal 12 aa]: the protein stability index was 0.719 ± 0.037 under setting [1] and 0.72 ± 0.043 (genetic background: wild type).

With MKHTKKLQLDKV [PKP2 C-terminal 12 aa], the protein stability index under setting [1] stood at 0.69 ± 0.007 and the protein stability index (genetic background: wild type) turned out to be 0.696 ± 0.024.

For the sequence MNEIDARIFEYK [SPO11 C-terminal 12 aa], the protein stability index under setting [1] was 0.764 ± 0.024 and the protein stability index (genetic background: wild type) was found to be 0.681 ± 0.013.

In the case of MQLARRIRGQFI [CSE4 C-terminal 12 aa], the protein stability index was 0.691 ± 0.0093 under setting [1] and 0.646 ± 0.02 (genetic background: wild type).

On to MRIRSDMSMMRW [COR1 C-terminal 12 aa], for which the protein stability index by setting is: under setting [1], 0.71 ± 0.0094; (genetic background: wild type) 0.7133 ± 0.0025.

For the sequence MRNNNDTTFKSF [YNL013C C-terminal 12 aa], the protein stability index by setting is: under setting [1], 0.685 ± 0.015; (genetic background: wild type) 0.698 ± 0.02.

For the sequence MSLMRKAYHFWC [BAP2 C-terminal 12 aa], the protein stability index turned out to be 0.726 ± 0.024 under setting [1] and 0.619 ± 0.039 (genetic background: wild type).

Regarding MTMILSRMSCSA [IRA2 C-terminal 12 aa], the protein stability index came to 0.622 ± 0.014 under setting [1] and 0.609 ± 0.015 (genetic background: wild type).

In the case of MVEAAALKRNKK [ARO10 C-terminal 12 aa], the protein stability index was 0.686 ± 0.049 under setting [1] and 0.7161 ± 0.0026 (genetic background: wild type).

As to MVYKPEDSLLKI [MTR2 C-terminal 12 aa], the protein stability index is, setting by setting: under setting [1], 0.684 ± 0.039; (genetic background: wild type) 0.67 ± 0.014.

With MYCASFQLPANV [TRM5 C-terminal 12 aa], the protein stability index was found to be 0.673 ± 0.015 under setting [1] and 0.6578 ± 0.0027 (genetic background: wild type).

As to NDEEKQALAEKA [YLR297W C-terminal 12 aa], the protein stability index runs as follows: under setting [1], 0.683 ± 0.011; (genetic background: wild type) 0.6834 ± 0.0067.

NDGTSANSACSC [VPS21 C-terminal 12 aa] came in with a protein stability index under setting [1] of 0.715 ± 0.012 and a protein stability index (genetic background: wild type) of 0.691 ± 0.045.

NDITLAVYTSAQ [EGO2 C-terminal 12 aa]: the protein stability index is, setting by setting: under setting [1], 0.6895 ± 0.00082; (genetic background: wild type) 0.651 ± 0.021.

With NEDLGLSDIKVE [ZPR1 C-terminal 12 aa], the protein stability index under setting [1] came to 0.694 ± 0.0078 and the protein stability index (genetic background: wild type) was determined as 0.68742 ± 0.00015.

Turning to NEQEINKIFEPE [HXT14 C-terminal 12 aa], the protein stability index runs as follows: under setting [1], 0.694 ± 0.01; (genetic background: wild type) 0.743 ± 0.052.

Regarding NEQVKKFFLNNV [NAS6 C-terminal 12 aa], the protein stability index worked out at 0.701 ± 0.029 under setting [1] and 0.714 ± 0.01 (genetic background: wild type).

NGLNWEVIEYHA [HRI1 C-terminal 12 aa] displayed a protein stability index under setting [1] of 0.724 ± 0.008 and a protein stability index (genetic background: wild type) of 0.713 ± 0.042.

Consider NGNNAESGETKQ [SSC1 C-terminal 12 aa], for which the protein stability index reads like this: under setting [1], 0.6813 ± 0.0068; (genetic background: wild type) 0.6673 ± 0.0059.

In turn, NKAPSWLLTALE [OCA1 C-terminal 12 aa] showed a protein stability index under setting [1] of 0.6834 ± 0.0031 and a protein stability index (genetic background: wild type) of 0.69 ± 0.027.
